Experimental data taken from patent US20220098295A1 (ALLERGAN, published 2022).
Residue numbers refer to the chain shown, from its start.

B1: P36F3 (bispecific antibody, part only; not given: linker, domain order, Fc, V domains shown, not shown: another chain or arm of the molecule; a dimerising Fc or GST; small tags and cut ends)
VH 1: QVQLVESGGGLVQPGGSLRLSCAASGFTFSSYWMHWVRQAPGKGLVWVSRINSDGSSTSYADSVKGRFTISRDNAKNTLYLQMNSLRAEDTAVYYCAKDKGITMVRGVIHFDYWGQGTLVTVSS
VH 2: QVQLVESGGGLVQPGGSLRLSCAASGFTFSSYWMHWVRQAPGKGLVWVSRINSDGSSTSYADSVKGRFTISRDNAKNTLYLQMNSLRAEDTAVYYCAREGYSSGGQFDYWGQGTLVTVSS
B2: anti-PDGF BB HCAb P36F3 (antibody, IgG1, V domains shown)
VH: B1 VH 1
notes: Heavy chain only antibody, no light chain; VH fused to IgG1 hinge and CH2/CH3; not shown: human IgG1 hinge region and CH2/CH3 regions (no CH1)
B3: anti-PDGF BB HCAb P36E10 (antibody, IgG1, V domains shown)
VH: QVQLLESGGGLVQPGGSLRLSCAASGFTFSSYAMSWVRQAPGKGLEWVSAISGSGGSTYYADSVKGRFTISRDNSKNTLYLQMNSLRAEDTAVYYCASNSGFFTLSGFIRYKFWGQGTLVTVSS
notes: as for B2
B4: anti-PDGF BB HCAb P36C12 (antibody, IgG1, V domains shown)
VH: B3 VH with S98R, G101E, F102I, T104M, L105V, S106K, F108V, R110Q, K112N, F113S
notes: Heavy chain only antibody, no light chain; VH fused to IgG1 hinge and CH2/CH3; It is printed in places as P36012, which looks like a misprint of P36C12; also called P36012; not shown: human IgG1 hinge region and CH2/CH3 regions (no CH1)
B5: anti-PDGF BB HCAb P36A3 (antibody, V domains shown)
VH: B3 VH with G101V, F103S, S106K, I109L, R110Q
notes: Heavy chain only antibody, no light chain; VH fused to IgG1 hinge and CH2/CH3 and made in CHO cells as fully human recombinant HCAb; It was captured by anti-human IgG Fc in the SPR assay; not shown: human IgG1 hinge region and CH2/CH3 regions (no CH1)
B6: anti-PDGF BB HCAb P36A4 (antibody, IgG1, V domains shown)
VH: B3 VH with A23P, S98R, S100N, F102I, T104M, L105F, S106R, F108V, F113S
notes: as for B2
B7: anti-PDGF BB HCAb P36E8 (antibody, IgG1, V domains shown)
VH: B3 VH with G101E, F102L, T104K, L105V, S106N, F108V, K112D
notes: as for B2

Columns and labels:
[1] = target: T1, human PDGF-BB (R&D system, 220-BB) (human, UniProt P01127 82-190, biotinylated in the blocking ELISA of Example 4 (sites not given); unlabelled in the SPR assay); test: Real-time sensorgram with response in nm (assay not given). Sample 'P36F3', association with rhPDGF BB at 25 - 500 nM. The column is headed kdis(1/s).
T1 construct: Bought protein (R&D Systems), a homodimer of two B subunits; also called human biotinylated PDGF-BB

[2] = target: T1, human PDGF-BB (R&D system, 220-BB); test: Real-time sensorgram with response in nm (assay not given). Sample 'P36F3', association with rhPDGF BB at 25 - 500 nM.
[3] = target: T1, human PDGF-BB (R&D system, 220-BB); test: SPR (Biacore T200, 25 C), HCAb captured by anti-human IgG Fc, PDGF-BB as analyte
Method: (§1) Anti-human IgG Fc antibody was directly immobilized across CM5 biosensor chip (GE Healthcare) using a standard coupling kit (GE Healthcare, BR-1008-39) according to the manufacturer's instructions. Purified anti-PDGF-BB HCAb molecules were diluted in running buffer HBS-EPB (GE Healthcare, BR-1006-69) at 0.5 to 1.0 μg/ml and captured on the coupled across anti-human IgG Fc surface. A 2-fold serial dilution of human PDGF-BB (R&D system, 220-BB) range from 0.625 to 10 nM were injected over anti-PDGF-BB HCAb captured surface at a flow rate of 30 μl/min. Associating rates (Ka) and dissociation rates (Kd) were calculated based on 1:1 Langmuir binding model with BIAcore T200 evaluation software version 2.0 (GE Healthcare). The equilibrium dissociation constant (Kd) was determined by the ratio Koff/Kon.

[4] = target: T1, human PDGF-BB (R&D system, 220-BB); test: blocking ELISA: HCAb dilutions with 2 nM biotinylated PDGF-BB, binding to coated PDGFRβ-Fc
Method: Two micrograms per milliliter per well of PDGFRβ-Fc (R & D Systems) was coated on 96 well microtiter plates overnight at 4° C. In a separate plate, serial dilutions of anti-PDGF BB HCAb were incubated with 2 nM human biotinylated PDGF-BB (R&D Systems) for 1 hr. One hundred microliters of the anti-PDGF BB HCAb-PDGF-BB mix were applied to the PDGFRβ-Fc-coated microtiter plate for 1 hr. The detection antibody (anti-biotin HRP) was then added for 1 hr and the ELISA was developed with a chemiluminescent HRP substrate and read by an ELISA plate reader. Anti-PDGF BB HCAb blocked the binding of PDGF-BB to its receptor PDGFRβ and IC₅₀ of anti-PDGF BB HCAb blocking to PDGFRβ is summarized in Table 4.

[5] = target: T1, human PDGF-BB (R&D system, 220-BB); test: SPR (Biacore T200, 25 C), HCAb captured by anti-human IgG Fc, PDGF-BB 0.625-10 nM as analyte, 1:1 model
Method: as §1

[6] = target: T1, human PDGF-BB (R&D system, 220-BB); test: SPR (Biacore T200, 25 C), HCAb captured by anti-human IgG Fc, PDGF-BB as analyte; * over the limit of detection
Method: as §1

T1 sequence (P01127 82-190 limits assumed): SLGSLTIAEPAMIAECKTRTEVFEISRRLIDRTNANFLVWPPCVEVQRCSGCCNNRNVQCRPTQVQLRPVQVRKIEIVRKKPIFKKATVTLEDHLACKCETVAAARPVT

Binder	koff [1] [s⁻¹]	Kd [2] [nM]	kon [2] [M⁻¹ s⁻¹]	Kd [3] [nM]	koff [3] [s⁻¹]	IC50 [4] [nM]	kon [5] [M⁻¹ s⁻¹]	Kd [6] [nM]	koff [6] [s⁻¹]
B1	1.1e-06	0.0434	25300	–	–	–	–	–	–
B2	–	–	–	0.00883	8.73e-06	1.71	988000	–	–
B3	–	–	–	0.455	1.92e-05	21.4	42100	–	–
B4	–	–	–	–	–	1.07	1e+06	< 0.001	< 1e-06
B5	–	–	–	–	–	7.75	219000	< 0.00457	< 1e-06
B6	–	–	–	0.00179	1.17e-06	3.77	654000	–	–
B7	–	–	–	–	–	5.52	243000	< 0.00412	< 1e-06
